According to the Human Domainome abundance scans (Beltran et al. 2025):
± gives the uncertainty stated by the source.

Experiment: abundance fitness (aPCA) (normalised: wild type 0, dead -1); higher = more abundant; growth selection in yeast, the domain comes from the species named
Settings: Homo sapiens
Substance “Transcriptional activator Myb I169H, P10242” has an abundance fitness of -0.799 ± 0.22. “Transcriptional activator Myb I169K, P10242” showed an abundance fitness of -1.05 ± 0.15. Substance “Transcriptional activator Myb I169L, P10242” has an abundance fitness of -0.427 ± 0.086. “Transcriptional activator Myb I169M, P10242” gave an abundance fitness of -0.18 ± 0.093. With “Transcriptional activator Myb I169N, P10242” the abundance fitness was -0.91 ± 0.14. Substance “Transcriptional activator Myb I169P, P10242” has an abundance fitness of -0.734 ± 0.12. For “Transcriptional activator Myb I169Q, P10242”, the abundance fitness was -0.677 ± 0.16. “Transcriptional activator Myb I169R, P10242” showed an abundance fitness of -0.784 ± 0.071. For “Transcriptional activator Myb I169S, P10242”, the abundance fitness was -0.642 ± 0.076. “Transcriptional activator Myb I169T, P10242” showed an abundance fitness of -0.567 ± 0.11. “Transcriptional activator Myb I169V, P10242” gave an abundance fitness of -0.343 ± 0.094. In the case of “Transcriptional activator Myb I169W, P10242”, the abundance fitness is reported as -1.08 ± 0.18. Substance “Transcriptional activator Myb I169Y, P10242” has an abundance fitness of -0.147 ± 0.097. “Transcriptional activator Myb I181A, P10242” showed an abundance fitness of -0.569 ± 0.084. In the case of “Transcriptional activator Myb I181D, P10242”, the abundance fitness is reported as -1 ± 0.17. With “Transcriptional activator Myb I181E, P10242” the abundance fitness was -0.64 ± 0.11. Work on “Transcriptional activator Myb I181F, P10242” yielded an abundance fitness of -1.16 ± 0.38. “Transcriptional activator Myb I181G, P10242” gave an abundance fitness of -1.01 ± 0.07. “Transcriptional activator Myb I181H, P10242” gave an abundance fitness of -1.17 ± 0.25. For “Transcriptional activator Myb I181K, P10242”, the abundance fitness was -1.34 ± 0.35. “Transcriptional activator Myb I181L, P10242” showed an abundance fitness of -0.365 ± 0.094. “Transcriptional activator Myb I181N, P10242” gave an abundance fitness of -0.658 ± 0.35. For “Transcriptional activator Myb I181P, P10242”, the abundance fitness was -0.881 ± 0.25. In the case of “Transcriptional activator Myb I181Q, P10242”, the abundance fitness is reported as -0.756 ± 0.13. With “Transcriptional activator Myb I181R, P10242” the abundance fitness was -0.933 ± 0.081. In the case of “Transcriptional activator Myb I181S, P10242”, the abundance fitness is reported as -0.694 ± 0.086. Substance “Transcriptional activator Myb I181T, P10242” has an abundance fitness of -0.278 ± 0.094. For “Transcriptional activator Myb I181V, P10242”, the abundance fitness was -0.036 ± 0.07. With “Transcriptional activator Myb I181W, P10242” the abundance fitness was -1.26 ± 0.2. “Transcriptional activator Myb K143A, P10242” gave an abundance fitness of 0.049 ± 0.15. In the case of “Transcriptional activator Myb K143D, P10242”, the abundance fitness is reported as -0.192 ± 0.19. With “Transcriptional activator Myb K143E, P10242” the abundance fitness was -0.144 ± 0.17. Work on “Transcriptional activator Myb K143F, P10242” yielded an abundance fitness of -0.235 ± 0.18. Substance “Transcriptional activator Myb K143G, P10242” has an abundance fitness of -0.06 ± 0.059. “Transcriptional activator Myb K143I, P10242” showed an abundance fitness of -0.233 ± 0.14. Substance “Transcriptional activator Myb K143L, P10242” has an abundance fitness of -0.221 ± 0.16. “Transcriptional activator Myb K143M, P10242” showed an abundance fitness of -0.031 ± 0.16. Work on “Transcriptional activator Myb K143P, P10242” yielded an abundance fitness of -0.406 ± 0.49. For “Transcriptional activator Myb K143Q, P10242”, the abundance fitness was -0.961 ± 0.36. Work on “Transcriptional activator Myb K143R, P10242” yielded an abundance fitness of -0.228 ± 0.12. “Transcriptional activator Myb K143S, P10242” gave an abundance fitness of -0.245 ± 0.11. With “Transcriptional activator Myb K143T, P10242” the abundance fitness was -0.118 ± 0.11. For “Transcriptional activator Myb K143V, P10242”, the abundance fitness was -0.13 ± 0.087. “Transcriptional activator Myb K143W, P10242” gave an abundance fitness of -0.535 ± 0.076. “Transcriptional activator Myb K143Y, P10242” showed an abundance fitness of -0.201 ± 0.16. For “Transcriptional activator Myb K144A, P10242”, the abundance fitness was -0.202 ± 0.099. Work on “Transcriptional activator Myb K144C, P10242” yielded an abundance fitness of -0.095 ± 0.12. Substance “Transcriptional activator Myb K144D, P10242” has an abundance fitness of 0.06 ± 0.14. “Transcriptional activator Myb K144E, P10242” gave an abundance fitness of -0.114 ± 0.14. In the case of “Transcriptional activator Myb K144F, P10242”, the abundance fitness is reported as -0.285 ± 0.16. Work on “Transcriptional activator Myb K144G, P10242” yielded an abundance fitness of -0.042 ± 0.059. Substance “Transcriptional activator Myb K144H, P10242” has an abundance fitness of -0.232 ± 0.12. “Transcriptional activator Myb K144I, P10242” showed an abundance fitness of -0.206 ± 0.22. In the case of “Transcriptional activator Myb K144L, P10242”, the abundance fitness is reported as -0.101 ± 0.084. For “Transcriptional activator Myb K144M, P10242”, the abundance fitness was 0.028 ± 0.1. “Transcriptional activator Myb K144N, P10242” gave an abundance fitness of 0.073 ± 0.11. With “Transcriptional activator Myb K144P, P10242” the abundance fitness was -0.269 ± 0.11. For “Transcriptional activator Myb K144Q, P10242”, the abundance fitness was -0.015 ± 0.1. Work on “Transcriptional activator Myb K144R, P10242” yielded an abundance fitness of -0.078 ± 0.072. Substance “Transcriptional activator Myb K144S, P10242” has an abundance fitness of 0.067 ± 0.085. “Transcriptional activator Myb K144T, P10242” showed an abundance fitness of 0.101 ± 0.086. “Transcriptional activator Myb K144V, P10242” gave an abundance fitness of -0.042 ± 0.085. Work on “Transcriptional activator Myb K144W, P10242” yielded an abundance fitness of -0.201 ± 0.089. Substance “Transcriptional activator Myb K144Y, P10242” has an abundance fitness of 0.08 ± 0.16. “Transcriptional activator Myb K171A, P10242” showed an abundance fitness of -0.017 ± 0.093. “Transcriptional activator Myb K171C, P10242” showed an abundance fitness of -0.238 ± 0.12. With “Transcriptional activator Myb K171D, P10242” the abundance fitness was -0.234 ± 0.14. Substance “Transcriptional activator Myb K171E, P10242” has an abundance fitness of -0.017 ± 0.064. Substance “Transcriptional activator Myb K171F, P10242” has an abundance fitness of -0.638 ± 0.22. Work on “Transcriptional activator Myb K171G, P10242” yielded an abundance fitness of -0.336 ± 0.061. In the case of “Transcriptional activator Myb K171H, P10242”, the abundance fitness is reported as -0.207 ± 0.28. With “Transcriptional activator Myb K171I, P10242” the abundance fitness was -0.141 ± 0.12. For “Transcriptional activator Myb K171M, P10242”, the abundance fitness was 0 ± 0.08. “Transcriptional activator Myb K171P, P10242” showed an abundance fitness of -0.354 ± 0.14. In the case of “Transcriptional activator Myb K171Q, P10242”, the abundance fitness is reported as -0.084 ± 0.1. “Transcriptional activator Myb K171S, P10242” showed an abundance fitness of 0.016 ± 0.071. Substance “Transcriptional activator Myb K171T, P10242” has an abundance fitness of -0.148 ± 0.2. For “Transcriptional activator Myb K171V, P10242”, the abundance fitness was -0.19 ± 0.088.
